Assay results: US20230167162A1 (TAMPERE UNIVERSITY FOUNDATION SR, published 2023)
Ends that are not written are not given here.

What was measured:
[1] = biological target: T1, His-tagged neuropilin-1 b1b2 domain (NRP-1 WT) (UniProt O14786 273-586, limits assumed, FAM (5-(and-6)-carboxyfluorescein) label, amine-reactive dye); assay: ELISA: immobilised peptide (10 µg/well), FAM-labelled NRP-1, fluorescence intensity
T1 construct: domain: b1b2 domain; also called WT NRP-1; wild type NRP-1; not shown: His-tag
T1 sequence (looked up): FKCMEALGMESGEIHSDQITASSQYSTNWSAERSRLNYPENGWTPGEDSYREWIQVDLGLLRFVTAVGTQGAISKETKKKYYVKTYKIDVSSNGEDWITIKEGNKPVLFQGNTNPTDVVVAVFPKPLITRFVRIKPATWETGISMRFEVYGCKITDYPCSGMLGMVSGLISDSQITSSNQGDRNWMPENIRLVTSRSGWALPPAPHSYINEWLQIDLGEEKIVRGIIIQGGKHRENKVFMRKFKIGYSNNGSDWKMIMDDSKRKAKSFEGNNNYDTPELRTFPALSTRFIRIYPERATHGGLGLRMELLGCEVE
Method: (§1) In vitro binding of DCN-tCRK and peptides to NRP-1 was analyzed using ELISA analysis. 96-well, black FLUOTRAC™ 600, high binding plates (Greiner Bio-One, Kremsmünster, Austria) were coated with […] of 100 μg/ml DCN-tCRK in PBS at 4° C. overnight. 10 μg/well RPARPAR (SEQ ID NO: 25) and […] (SEQ ID NO: 26) peptides were coated in parallel as a positive and negative control, respectively. BSA was used as an immobilization control. The plates were washed 3 times with phosphate buffered saline (PBS) and blocked for 1 h at 37° C. with 300 μl of blocking solution (1×PBS, 1% BSA, 0.1% Tween-20). His-tagged neuropilin-1 b1b2 domain (NRP-1 WT) and triple mutant NS346A-E348A-T349A neuropilin-1 b1b2 domain (NRP-1 mutant) were expressed and purified at the Protein Production and Analysis Facility at the Sanford Burnham Prebys Medical Discovery Institute (La Jolla, Calif.) as described previously (Teesalu et al., 2009, PNAS 106:16157-16162). The recombinant proteins NRP1 WT, NRP1 mutant, and DCN-tCRK were FAM (5-(and-6)-Carboxyfluorescein, #90024, Biotium Inc, CA, USA) labeled by mixing 1:10 ratio of amine-reactive FAM dye (diluted in DMSO final concentration 0.2%) and protein. […] After adding 100 μl PBS in each well, the plate was immediately read with top read mode using a fluorescence reader (Flex Station II, Molecular Devices; peak excitation=485 nm, peak emission=530 nm, cut off=515).

[2] = biological target: T2, 6xHistag-DCN-tCRK fusion protein (human, UniProt P07585 31-359, glycosaminoglycan chain (mostly chondroitin sulfate) attached to the DCN core, residue not stated; FAM-labelled in the cell assay only); assay: ELISA: immobilised DCN-tCRK (100 µg/ml coating), FAM-labelled NRP-1 mutant, fluorescence intensity, compared with BSA control
T2 construct: Produced in HEK293F cells; Immobilised unlabelled on the plate in the ELISA; also called tCRK-DCN; FAM-DCN-tCRK
T2 sequence (P07585 other isoform, or with tags, fused parts or gaps): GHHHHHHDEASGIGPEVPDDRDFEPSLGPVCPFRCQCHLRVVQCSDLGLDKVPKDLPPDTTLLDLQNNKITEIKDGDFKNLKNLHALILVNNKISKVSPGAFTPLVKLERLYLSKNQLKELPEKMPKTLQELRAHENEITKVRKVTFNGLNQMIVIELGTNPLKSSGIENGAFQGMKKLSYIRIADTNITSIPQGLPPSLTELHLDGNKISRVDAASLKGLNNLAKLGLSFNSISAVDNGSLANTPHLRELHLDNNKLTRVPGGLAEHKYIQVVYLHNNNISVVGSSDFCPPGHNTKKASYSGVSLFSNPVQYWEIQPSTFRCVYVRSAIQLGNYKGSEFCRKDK
Method: as §1

B1: RPARPARA peptide (peptide)
peptide: RPARPARA
modifications: not fully specified
notes: also called negative peptide
B1: no binding (tested: 20 µg/well FAM-labelled NRP1 WT) [1].

B2: triple mutant NS346A-E348A-T349A neuropilin-1 b1b2 domain (NRP-1 mutant) (receptor, UniProt O14786 273-586, looked up)
chain: FKCMEALGMESGEIHSDQITASSQYSTNWSAERSRLNYPENGWTPGEDSYREWIQVDLGLLRFVTAVGTQGAIAKAAKKKYYVKTYKIDVSSNGEDWITIKEGNKPVLFQGNTNPTDVVVAVFPKPLITRFVRIKPATWETGISMRFEVYGCKITDYPCSGMLGMVSGLISDSQITSSNQGDRNWMPENIRLVTSRSGWALPPAPHSYINEWLQIDLGEEKIVRGIIIQGGKHRENKVFMRKFKIGYSNNGSDWKMIMDDSKRKAKSFEGNNNYDTPELRTFPALSTRFIRIYPERATHGGLGLRMELLGCEVE
modifications: FAM (5-(and-6)-carboxyfluorescein) label, amine-reactive dye
notes: domain: b1b2 domain; Printed as 'NS346A-E348A-T349A'; also called mutant NRP-1; not shown: His-tag
B2: no binding (tested: 20 µg/well FAM-labelled NRP1 mutant) [2].
